Earlier results as cited in paper PMC4083100.
pKd: −log10 of the molar value.

Molecular target: FcεRI (Homo sapiens) (UniProt P12319)
Sequence of UniProt P12319 (P12319 26-257): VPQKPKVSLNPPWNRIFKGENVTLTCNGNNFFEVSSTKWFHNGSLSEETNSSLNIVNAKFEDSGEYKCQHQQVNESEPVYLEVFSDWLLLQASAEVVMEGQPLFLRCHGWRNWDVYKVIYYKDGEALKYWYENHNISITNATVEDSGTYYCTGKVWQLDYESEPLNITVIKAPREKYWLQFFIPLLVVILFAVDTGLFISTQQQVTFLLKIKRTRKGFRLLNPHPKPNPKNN

pKd: > 9.00
Substance: IgE (from UniProt P01854)
